The source of these data is a protein production outcome set (Wang et al. 2014).

A short description of the series: label from the status in PepcDB records.
With “MDRRRFIKGSMAMAAVCGTSGIASLFSQAAFAADSDIADGQTQRFDFSILQSMAHDLAQTAWRGAPRPLPDTLATMTPQAYNSIQYDAEKSLWHNVENRQLDAQFFHMGMGFRRRVRMFSVDPATHLAREIHFRPELFKYNDAGVDTKQLEGQSDLGFAGFRVFKAPELARRDVVSFLGASYFRAVDDTYQYGLSARGLAIDTYTDSKEEFPDFTAFWFDTVKPGATTFTVYALLDSASITGAYKFTIHCEKSQVIMDVENHLYARKDIKQLGIAPMTSMFSCGTNERRMCDTIHPQIHDSDRLSMWRGNGEWICRPLNNPQKLQFNAYTDNNPKGFGLLQLDRDFSHYQDIMGWYNKRPSLWVEPRNKWGKGTIGLMEIPTTGETLDNIVCFWQPEKAVKAGDEFAFQYRLYWSAQPPVHCPLARVMATRTGMGGFPEGWAPGEHYPEKWARRFAVDFVGGDLKAAAPKGIEPVITLSSGEAKQIEILYIEPIDGYRIQFDWYPTSDSTDPVDMRMYLRCQGDAISETWLYQYFPPAPDKRQYVDDRVMS”, the protein production entry is reported as “failed”. The same measure for “MDRTHERVLQAMAENLGEGLPRAIPLLAEKAPGLLLEHGRSWTYAMPEKGALDEKTRTLILLGIALATGSEACVKAMAHRAKRLGLSKEALLETLKIARQAQANAVLGHAAPLLEVL”: “not failed”; for “MDSDPLGVFPNSPKYHPYYSQTTEFGGVIDLGLSLRTIQHEIYHSSGQIMTCGKGYCSNEGYRRKWGYVKVTMDGLVVGRKVCVLDHGSYSTLAHQLEDMFGMQSVSGLRLFQMESEFCLVYRDEEGLWRNAGDVPWNEFIESVERLRITRRNDAVLPF”: “failed”.

Take “MDSGKSRSLETTVKRVYRDLLLPKINTSKKMSTLTNSPSSLEGTPGIKKNSGEMQAEASAERVKLTKSIKEKQNNELEKVALKRKADSEEKLVGKKEAKIMELDNQLVTTVPLPHIPLKNIMDVEMKLVYVDEEDVSYEFAQPNMCLGLQATGQTATTMPPASPRDLTTLPQIDKWLQVALKDASSCYRQKKYAVAAGQFRTALELCSKGAALGKPFEAHAEDIASIASFIETKLVTCYLRMRKPDLALNHAHRSIVLNPAYFRNHLRQAAVFRCLERYSEAARSAMIADYMFWLCGGSEHSVSKLIKLYWQAMIEEAITRAEAFSVMYTPFATRIKPENIEKVKEVFMRTHPTYVDCIYTDTQGLHVLPQTADWSCFPPQQYLLTLGFKNKEDGKFLEKVSSRKLPTYTEHKTPFSPLTREDTVRHMETVGKRILPILDFIRSTQLNGNFHACSGVMEKLHYASLLSRLQRVKEQAQVINQAMAELATVPYLQDISQQEAELLQSLMADAMDTLEGKKSDKERVWNTIQKVKF”: the protein production result was “failed”. In the case of “MDSIQESDVLNAVKTKLPPCCLRIFRNKIILVGTYDLDKSTGYRSGSLDVFTMDLKLLCSNNTYGAILDLKLSPFDDTLICTAHSTGNIMLWRIRCTDKDDFQSNELDIHAIANLQLFEKDVLIASCHFSPLDCKKLLVTNTAGEAATIDIRTLSVQFTASAIAQAYSKLDKIDYEVQGATEKVIHVESGQFLKPHELECWTAEFGSLQPFQDVVFTGGDDSRIMAHDLRSKEFIWSNNRIHDAGVVSIKCSQPNFRNNKPTSIITGSYDDNIRSLDLRMMGESIFPGANVPTVNKLACDLGGGVWRFVESPIDQEQSHHNGSDRLLVCCMYNGAKVVTMNDNSDEYFQIQHYLKKGHDSMCYGGDWSNSLIATCSFYDNSLQTWIV” it was “failed”. The same measure for “MDSLVASYASSDEEEDLQPRREAFTVKSSEPSASSLFSAIPQPKELKSSEDGDLGSSSSRGKSSSFLSSLPPPKSSISRKKNPNPSSIPKRVVQIRLPVNPRPSNLDDEDDEEEEKARKKRKQMESASASHDSSVRSFLSAMPAPKSSQTLGALPSLGSGSGRRSNLETETPSIAFPQTDSGISDQQNQSYESFSHSNSETEQIVGVDNYYATGYDGGYETIPSGSSVGYDGSSYGGNTWNGGGFEAMTGLPEAVVAMDSGARRGRRGRNQMPEIVEVKQDELMKNRPRVDQVKSTGIAFGPAYQPVTSSSKGKVSKLHKRKHQITALFMDMKHKESELTERRSRGLLTKAETQAKYGW”: “failed”; for “MDSMILGRYIPGDSIVHRLDPRSKLLAMMLLILIVFWANNPLTNLILFIATGIFIALSGVSLSFFIQGLKSMFFLIAFTTIFQLFFISNGNVLFEFSFVRITDYALQQAGIIFCRFVLIIFFSTLLTLTTMPLSLASAVEALLAPLKRVKVPVHEIGLMLSMSLRFVPTLMDDTTRIMNAQKARGVDFGEGSIVQKVKAMIPILIPLFATSLKRADSLAIAMEARGYQGGKGRSQYRQLKWTLKDTLTILVILVLGCCLFFLKS”: “failed”.
